Measurements reported in EP4537907A1 (Enthera S.r.l., dated 2025).

T1: human CD248 expressed on the cell membrane of transiently transfected HEK 293 cells (human, UniProt Q9HCU0 18-757)
T1 construct: whole, on cells; also called human CD248+ cells; CD248-positive cells
T1 sequence (looked up): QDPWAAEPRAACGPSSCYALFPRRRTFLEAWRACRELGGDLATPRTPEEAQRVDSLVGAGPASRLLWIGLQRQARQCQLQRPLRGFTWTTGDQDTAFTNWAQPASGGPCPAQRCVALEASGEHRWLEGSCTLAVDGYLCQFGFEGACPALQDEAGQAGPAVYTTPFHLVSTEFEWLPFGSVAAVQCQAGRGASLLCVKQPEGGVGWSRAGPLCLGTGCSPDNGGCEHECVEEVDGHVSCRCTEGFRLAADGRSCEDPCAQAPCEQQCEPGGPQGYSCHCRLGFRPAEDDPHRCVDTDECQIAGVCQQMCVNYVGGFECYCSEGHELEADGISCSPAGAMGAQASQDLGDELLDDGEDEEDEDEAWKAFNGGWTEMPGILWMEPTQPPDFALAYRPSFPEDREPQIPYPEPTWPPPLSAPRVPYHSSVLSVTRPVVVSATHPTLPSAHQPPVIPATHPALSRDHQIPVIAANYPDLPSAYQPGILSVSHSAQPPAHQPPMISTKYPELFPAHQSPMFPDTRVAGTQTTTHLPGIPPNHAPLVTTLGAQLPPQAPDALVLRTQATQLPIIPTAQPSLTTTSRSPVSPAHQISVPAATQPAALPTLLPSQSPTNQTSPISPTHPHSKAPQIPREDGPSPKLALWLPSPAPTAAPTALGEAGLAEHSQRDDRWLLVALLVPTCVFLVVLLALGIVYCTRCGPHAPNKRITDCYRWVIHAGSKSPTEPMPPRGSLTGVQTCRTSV

T2: mouse CD248 expressed on the cell membrane of transiently transfected HEK 293 cells (mouse, UniProt Q91V98 18-765)
T2 construct: whole, on cells; also called mouse CD248+ cells
T2 sequence (looked up): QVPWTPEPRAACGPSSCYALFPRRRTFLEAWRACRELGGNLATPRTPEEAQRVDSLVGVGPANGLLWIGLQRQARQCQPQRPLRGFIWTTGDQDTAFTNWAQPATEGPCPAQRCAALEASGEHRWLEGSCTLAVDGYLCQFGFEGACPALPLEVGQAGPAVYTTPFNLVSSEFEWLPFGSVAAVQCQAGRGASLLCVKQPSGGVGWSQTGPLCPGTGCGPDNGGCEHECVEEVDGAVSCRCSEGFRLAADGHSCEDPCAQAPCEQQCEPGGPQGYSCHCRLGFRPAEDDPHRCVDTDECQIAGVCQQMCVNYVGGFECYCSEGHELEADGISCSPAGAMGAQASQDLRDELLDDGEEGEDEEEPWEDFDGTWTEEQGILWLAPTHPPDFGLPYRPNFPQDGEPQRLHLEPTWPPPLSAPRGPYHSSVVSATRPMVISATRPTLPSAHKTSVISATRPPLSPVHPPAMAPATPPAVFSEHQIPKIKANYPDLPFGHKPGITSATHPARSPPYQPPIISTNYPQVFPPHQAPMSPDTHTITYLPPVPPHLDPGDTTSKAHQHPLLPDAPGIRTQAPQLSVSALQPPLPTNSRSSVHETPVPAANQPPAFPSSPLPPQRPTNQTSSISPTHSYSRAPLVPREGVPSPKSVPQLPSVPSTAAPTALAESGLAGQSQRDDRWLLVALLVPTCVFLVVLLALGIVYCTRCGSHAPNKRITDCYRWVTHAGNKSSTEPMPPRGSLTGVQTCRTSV

T3: recombinant human CD248 (internally produced) (human, UniProt Q9HCU0 18-687, limits assumed, biotinylated in the inhibition ELISA)
T3 construct: Soluble recombinant protein; also called human recombinant CD248; biotinylated CD248 (internally produced)
T3 sequence (looked up): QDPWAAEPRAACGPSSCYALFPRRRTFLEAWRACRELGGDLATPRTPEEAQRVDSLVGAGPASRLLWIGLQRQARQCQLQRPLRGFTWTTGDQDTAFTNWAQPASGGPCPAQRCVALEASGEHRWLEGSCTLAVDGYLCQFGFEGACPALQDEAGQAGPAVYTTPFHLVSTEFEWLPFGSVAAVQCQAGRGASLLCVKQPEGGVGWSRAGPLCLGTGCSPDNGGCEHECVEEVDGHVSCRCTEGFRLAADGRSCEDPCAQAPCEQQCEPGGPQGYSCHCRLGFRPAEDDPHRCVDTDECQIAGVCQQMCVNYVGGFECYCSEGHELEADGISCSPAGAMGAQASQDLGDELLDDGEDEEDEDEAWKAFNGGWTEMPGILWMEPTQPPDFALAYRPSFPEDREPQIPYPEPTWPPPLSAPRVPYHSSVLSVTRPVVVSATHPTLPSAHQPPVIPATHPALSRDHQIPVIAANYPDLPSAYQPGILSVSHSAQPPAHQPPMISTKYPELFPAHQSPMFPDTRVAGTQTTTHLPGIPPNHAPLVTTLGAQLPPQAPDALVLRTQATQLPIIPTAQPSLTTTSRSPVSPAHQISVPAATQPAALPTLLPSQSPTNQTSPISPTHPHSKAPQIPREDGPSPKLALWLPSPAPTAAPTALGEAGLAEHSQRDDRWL

T4: recombinant mouse CD248 (internally produced) (mouse, UniProt Q91V98 18-695, limits assumed)
T4 construct: also called murine recombinant CD248; Murine CD248
T4 sequence (looked up): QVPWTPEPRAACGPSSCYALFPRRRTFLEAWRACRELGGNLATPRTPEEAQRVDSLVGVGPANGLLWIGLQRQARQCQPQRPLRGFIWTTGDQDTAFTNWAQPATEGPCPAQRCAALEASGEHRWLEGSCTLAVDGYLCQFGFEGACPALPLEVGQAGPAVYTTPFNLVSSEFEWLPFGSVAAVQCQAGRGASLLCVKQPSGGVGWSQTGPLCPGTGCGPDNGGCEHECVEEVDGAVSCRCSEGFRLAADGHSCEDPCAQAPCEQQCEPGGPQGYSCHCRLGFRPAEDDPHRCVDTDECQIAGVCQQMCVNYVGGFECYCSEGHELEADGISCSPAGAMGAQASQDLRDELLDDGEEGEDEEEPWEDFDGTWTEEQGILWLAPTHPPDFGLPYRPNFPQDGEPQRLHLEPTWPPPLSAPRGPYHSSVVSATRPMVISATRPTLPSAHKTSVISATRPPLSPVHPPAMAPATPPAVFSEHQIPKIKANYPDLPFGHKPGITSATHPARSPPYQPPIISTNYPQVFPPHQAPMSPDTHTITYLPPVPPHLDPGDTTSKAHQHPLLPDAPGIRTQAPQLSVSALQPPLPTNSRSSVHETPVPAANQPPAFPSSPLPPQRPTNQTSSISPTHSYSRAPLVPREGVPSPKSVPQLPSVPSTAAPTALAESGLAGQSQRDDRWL


Columns and labels:
[1] = molecular target: T1, human CD248 expressed on the cell …; experiment: flow cytometry on transiently transfected HEK 293 cells, secondary anti-human IgG, antibody concentration series
[2] = molecular target: T2, mouse CD248 expressed on the cell …; experiment: as above
[3] = molecular target: T3, recombinant human CD248 (internally …); experiment: competition ELISA: purified IgG4 (S228P/L235E) with biotinylated human CD248, added to immobilised human IGFBP5, Streptavidin-HRP
[4] = molecular target: T5, irrelevant antigen expressed on HEK 293 cells after transient transfection (human); experiment: flow cytometry on HEK 293 cells transiently transfected with an irrelevant antigen (negative control), secondary anti-human IgG
T5 construct: Negative control antigen; also called irrelevant human antigen; irrelevant Ag+ cells

[5] = molecular target: T3, recombinant human CD248 (internally …); experiment: BLI (Octet platform, BLItz System), mAb captured via Fc on AHC biosensor, soluble antigen at different concentrations
[6] = molecular target: T4, recombinant mouse CD248 (internally …); experiment: as above

Binder | EC50 [1] [µg/mL] | EC50 [2] [µg/mL] | IC50 [3] [µg/mL] | EC50 [4] [µg/mL] | Kd [5] [nM] | Kd [6] [nM]
YU1023-E03 (antibody, human IgG4, V domains shown, Tested as full human IgG4 carrying the S228P/L235E mutations; It was scarcely produced (<0.1 mg/ml)) VH: EVQLLESGGGVVQPGRSLRLSCAASGFTFSSYAMHWVRQAPGKGLEWVAVISYDGSNKYYADSVKGRFTISRDNSKNTLYLQMNSLRAEDTAVYYCARSIAAAGTRWFDPWGQGTLVTVSS VL: DIQLTQSPSSVSASVGDRVTITCRASQGISSWLAWYQQKPGKAPKLLIYAASSLQSGVPSRFSGSGSGTDFTLTISSLQPEDFATYYCQQANSFPLTFGGGTKLEIK | 1.49 | 0.891 | 17.4 | 3.84 | – | –
YU1025-B07 (antibody, V domains shown, Tested as full human IgG4 carrying the S228P/L235E mutations) VH: QVQLVQSGGGVVQPGRSLRLSCAASGFTFSSYAMHWVRQAPGKGLEWVAVISYDGSNKYYADSVKGRFTISRDNSKNTLYLQMNSLRAEDTAVYYCARTKARWFGVTTYMDVWGKGTLVTVSS VL: not shown | 0.0236 | 0.0216 | 19.2 | 1.68 | 11.7 | 14.2
YU1023-B03 (antibody, human IgG4, V domains shown, Tested as full human IgG4 carrying the S228P/L235E mutations) VH: not shown VL: DVVMTQSPLSLPVTPGEPASISCRSSQSLLHSNGYNYLDWYVQKPGQSPQRLIYFTSNRASGVPDRFSGSGSGTDFTLKISRVEAEDVGVYYCMQSIQLPRTFGQGTKVEIK | 0.0401 | 0.0184 | 47.6 | 3.66 | 18.6 | 7.99
YU1023-A02 (antibody, human IgG4, V domains shown, Tested as full human IgG4 carrying the S228P/L235E mutations; also called YU1023-A02 mAb) VH: QVQLVESGPGLVKPSQTLSLTCTVSGGSISSGGYYWSWIRQHPGKGLEWIGYIYYSGSTYYNPSLKSRVTISVDTSKNQFSLKLSSVTAADTAVYYCARVRGRSATYFDYWGQGTTVTVSS VL: QSVLTQPPSVSGAPGQRVTISCTGSSSNIGAGYDVRWYQQLPGTAPKLLIYANNNRPSGVPDRFSGSKSGTSASLAITGLQTEDEADYYCQSYDISLSGSLFGGGTKLTVL | 0.0523 | 0.0388 | 20.8 | 3.16 | 9.94 | 10.1
YU1024-G01 (antibody, human IgG4, V domains shown, Tested as full human IgG4 carrying the S228P/L235E mutations) VH: QVQLQESGGGVVQPGRSLRLSCAASGFTFSSYAMHWVRQAPGKGLEWVAVISYDGSNKYYADSVKGRFTISRDNSKNTLYLQMNSLRAEDTAVYYCARNNHPRGERLPQYWGQGTLVTVSS VL: DIQLTQSPSSLSASVGDRVTITCRASQSVGSYLNWYQHKPGKAPKLLIYVASRLQSGVPSRFSGSGSGTDFTLTINSLQPEDFATYYCQQSYSTPLTFGGGTKVEIK | 0.0121 | ~0.00985 | 4.7 | 2.11 | 3.78 | 3.91
